From publication PMC10850505, “Molecular mechanism of specific HLA-A mRNA recognition by the RNA-binding-protein hMEX3B to promote tumor immune escape”

Assays:
hMEX3B KH1/2 WT [1] = molecular target: T1, hMEX3B KH1/2 WT (Homo sapiens, UniProt Q6ZN04 56-230); experiment: ITC; N 0.96; ITC at 298 K, protein injected into RNA, both dialyzed in the same buffer (composition not in the material; purification SEC buffer 2 M NaCl, 20 mM Tris pH 7.5); NMR at 298 K, 0.1 mM protein; details: protein: recombinant; tags: 6xHis-SUMO cleaved (ULP1)
T1 sequence: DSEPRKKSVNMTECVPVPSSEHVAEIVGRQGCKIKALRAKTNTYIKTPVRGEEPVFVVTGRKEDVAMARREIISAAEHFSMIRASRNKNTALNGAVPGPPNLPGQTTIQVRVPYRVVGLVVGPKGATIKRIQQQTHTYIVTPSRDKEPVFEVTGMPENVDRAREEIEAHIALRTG

[2] = molecular target: T2, hMEX3B KH1/2 (G177D/G180D) (Homo sapiens, UniProt Q6ZN04 56-230, G177D;G180D); experiment: ITC; N 0.89; ITC at 298 K, protein injected into RNA, both dialyzed in the same buffer (composition not in the material; purification SEC buffer 2 M NaCl, 20 mM Tris pH 7.5); NMR at 298 K, 0.1 mM protein; details: protein: recombinant; tags: 6xHis-SUMO cleaved (ULP1)
T2 sequence: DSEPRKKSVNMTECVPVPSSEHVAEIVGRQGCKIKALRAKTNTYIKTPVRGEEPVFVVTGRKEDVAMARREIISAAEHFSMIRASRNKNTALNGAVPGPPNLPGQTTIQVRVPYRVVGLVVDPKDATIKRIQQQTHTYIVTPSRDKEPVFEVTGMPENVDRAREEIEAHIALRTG

hMEX3B KH1/2 (TR4A) = molecular target: T3, hMEX3B KH1/2 (TR4A) (Homo sapiens, UniProt Q6ZN04 56-230, T102A;R105A;T196A;R199A); experiment: ITC; ITC at 298 K, protein injected into RNA, both dialyzed in the same buffer (composition not in the material; purification SEC buffer 2 M NaCl, 20 mM Tris pH 7.5); NMR at 298 K, 0.1 mM protein; details: protein: recombinant; tags: 6xHis-SUMO cleaved (ULP1)
T3 sequence: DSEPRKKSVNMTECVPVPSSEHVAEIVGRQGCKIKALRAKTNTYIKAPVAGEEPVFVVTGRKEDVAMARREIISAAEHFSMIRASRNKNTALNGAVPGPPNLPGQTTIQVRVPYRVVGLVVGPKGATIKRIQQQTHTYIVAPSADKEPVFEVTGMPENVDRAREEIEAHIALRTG

hMEX3B KH1/2 (G4D) = molecular target: T4, hMEX3B KH1/2 (G4D) (Homo sapiens, UniProt Q6ZN04 56-230, G83D;G86D;G177D;G180D); experiment: as above; details: protein: recombinant; tags: 6xHis-SUMO cleaved (ULP1)
T4 sequence: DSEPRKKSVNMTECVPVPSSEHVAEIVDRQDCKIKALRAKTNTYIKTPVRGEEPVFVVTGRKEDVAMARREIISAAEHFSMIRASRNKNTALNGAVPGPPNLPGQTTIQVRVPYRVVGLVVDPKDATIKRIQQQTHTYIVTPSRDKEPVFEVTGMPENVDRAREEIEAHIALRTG

hMEX3B KH2 WT [3] = molecular target: T5, hMEX3B KH2 WT (Homo sapiens, UniProt Q6ZN04 156-230); experiment: ITC; N 1.79; ITC at 298 K, protein injected into RNA, both dialyzed in the same buffer (composition not in the material; purification SEC buffer 2 M NaCl, 20 mM Tris pH 7.5); NMR at 298 K, 0.1 mM protein; details: protein: recombinant; tags: modified pET28a without thrombin site (His tag likely retained)
T5 sequence: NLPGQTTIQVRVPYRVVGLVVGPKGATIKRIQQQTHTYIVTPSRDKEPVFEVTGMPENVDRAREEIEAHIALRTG

hMEX3B KH1/2 WT [4] = molecular target: T1, hMEX3B KH1/2 WT; experiment: ITC; N 0.91; ITC at 298 K, protein injected into RNA, both dialyzed in the same buffer (composition not in the material; purification SEC buffer 2 M NaCl, 20 mM Tris pH 7.5); NMR at 298 K, 0.1 mM protein; details: protein: recombinant; tags: 6xHis-SUMO cleaved (ULP1)
[5] = molecular target: T6, hMEX3B KH1/2 (T102A/R105A) (Homo sapiens, UniProt Q6ZN04 56-230, T102A;R105A); experiment: ITC; N 0.79; ITC at 298 K, protein injected into RNA, both dialyzed in the same buffer (composition not in the material; purification SEC buffer 2 M NaCl, 20 mM Tris pH 7.5); NMR at 298 K, 0.1 mM protein; details: protein: recombinant; tags: 6xHis-SUMO cleaved (ULP1)
T6 sequence: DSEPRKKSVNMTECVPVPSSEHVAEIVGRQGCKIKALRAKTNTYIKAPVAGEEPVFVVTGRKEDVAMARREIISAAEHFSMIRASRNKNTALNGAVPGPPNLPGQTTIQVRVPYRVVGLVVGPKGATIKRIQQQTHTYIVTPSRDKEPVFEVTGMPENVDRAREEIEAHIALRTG

hMEX3B KH1 WT [6] = molecular target: T7, hMEX3B KH1 WT (Homo sapiens, UniProt Q6ZN04 56-144); experiment: ITC; N 1.91; ITC at 298 K, protein injected into RNA, both dialyzed in the same buffer (composition not in the material; purification SEC buffer 2 M NaCl, 20 mM Tris pH 7.5); NMR at 298 K, 0.1 mM protein; details: protein: recombinant; tags: modified pET28a without thrombin site (His tag likely retained)
T7 sequence: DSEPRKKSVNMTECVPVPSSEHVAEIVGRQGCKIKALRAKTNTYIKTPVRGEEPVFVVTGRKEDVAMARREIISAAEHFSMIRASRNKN

[7] = molecular target: T8, hMEX3B KH1/2 (T196A/R199A) (Homo sapiens, UniProt Q6ZN04 56-230, T196A;R199A); experiment: ITC; N 0.68; ITC at 298 K, protein injected into RNA, both dialyzed in the same buffer (composition not in the material; purification SEC buffer 2 M NaCl, 20 mM Tris pH 7.5); NMR at 298 K, 0.1 mM protein; details: protein: recombinant; tags: 6xHis-SUMO cleaved (ULP1)
T8 sequence: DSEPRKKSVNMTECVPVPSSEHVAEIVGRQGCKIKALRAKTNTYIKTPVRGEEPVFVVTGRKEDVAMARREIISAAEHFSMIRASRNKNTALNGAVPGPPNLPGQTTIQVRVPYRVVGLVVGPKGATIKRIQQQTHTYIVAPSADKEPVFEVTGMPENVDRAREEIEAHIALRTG

hMEX3B KH1/2 (G83D/G86D) = molecular target: T9, hMEX3B KH1/2 (G83D/G86D) (Homo sapiens, UniProt Q6ZN04 56-230, G83D;G86D); experiment: ITC; N 0.67; ITC at 298 K, protein injected into RNA, both dialyzed in the same buffer (composition not in the material; purification SEC buffer 2 M NaCl, 20 mM Tris pH 7.5); NMR at 298 K, 0.1 mM protein; details: protein: recombinant; tags: 6xHis-SUMO cleaved (ULP1)
T9 sequence: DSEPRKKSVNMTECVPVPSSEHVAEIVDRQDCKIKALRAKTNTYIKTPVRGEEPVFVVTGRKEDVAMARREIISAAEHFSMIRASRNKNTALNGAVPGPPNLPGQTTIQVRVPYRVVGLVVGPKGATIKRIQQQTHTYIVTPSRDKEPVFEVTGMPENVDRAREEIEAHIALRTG

hMEX3B KH1/2 WT [8] = molecular target: T1, hMEX3B KH1/2 WT; experiment: ITC; N 0.94; ITC at 298 K, protein injected into RNA, both dialyzed in the same buffer (composition not in the material; purification SEC buffer 2 M NaCl, 20 mM Tris pH 7.5); NMR at 298 K, 0.1 mM protein; details: protein: recombinant; tags: 6xHis-SUMO cleaved (ULP1)
hMEX3B KH1/2 WT [9] = molecular target: T1, hMEX3B KH1/2 WT; experiment: ITC; N 0.84; text says larger than 1.11 uM; ITC at 298 K, protein injected into RNA, both dialyzed in the same buffer (composition not in the material; purification SEC buffer 2 M NaCl, 20 mM Tris pH 7.5); NMR at 298 K, 0.1 mM protein; details: protein: recombinant; tags: 6xHis-SUMO cleaved (ULP1)
hMEX3B KH2 WT [10] = molecular target: T5, hMEX3B KH2 WT; experiment: ITC; N 1.02; ITC at 298 K, protein injected into RNA, both dialyzed in the same buffer (composition not in the material; purification SEC buffer 2 M NaCl, 20 mM Tris pH 7.5); NMR at 298 K, 0.1 mM protein; details: protein: recombinant; tags: modified pET28a without thrombin site (His tag likely retained)
hMEX3B KH1 WT [11] = molecular target: T7, hMEX3B KH1 WT; experiment: ITC; ITC at 298 K, protein injected into RNA, both dialyzed in the same buffer (composition not in the material; purification SEC buffer 2 M NaCl, 20 mM Tris pH 7.5); NMR at 298 K, 0.1 mM protein; details: protein: recombinant; tags: modified pET28a without thrombin site (His tag likely retained)
hMEX3B KH2 WT [12] = molecular target: T5, hMEX3B KH2 WT; experiment: as above; details: protein: recombinant; tags: modified pET28a without thrombin site (His tag likely retained)
hMEX3B KH1/2 WT [13] = molecular target: T1, hMEX3B KH1/2 WT; experiment: ITC; N 0.89; ITC at 298 K, protein injected into RNA, both dialyzed in the same buffer (composition not in the material; purification SEC buffer 2 M NaCl, 20 mM Tris pH 7.5); NMR at 298 K, 0.1 mM protein; details: protein: recombinant; tags: 6xHis-SUMO cleaved (ULP1)
hMEX3B KH1/2 WT [14] = molecular target: T1, hMEX3B KH1/2 WT; experiment: ITC; ITC at 298 K, protein injected into RNA, both dialyzed in the same buffer (composition not in the material; purification SEC buffer 2 M NaCl, 20 mM Tris pH 7.5); NMR at 298 K, 0.1 mM protein; details: protein: recombinant; tags: 6xHis-SUMO cleaved (ULP1)
hMEX3B KH1 WT [15] = molecular target: T7, hMEX3B KH1 WT; experiment: ITC; N 0.89; ITC at 298 K, protein injected into RNA, both dialyzed in the same buffer (composition not in the material; purification SEC buffer 2 M NaCl, 20 mM Tris pH 7.5); NMR at 298 K, 0.1 mM protein; details: protein: recombinant; tags: modified pET28a without thrombin site (His tag likely retained)

Binder CCGAGCUGUAAC (ssRNA) [12-nt RNA U2C] has a Kd (hMEX3B KH1/2 WT [1]) of 0.72 ± 0.09 µM.

With CUGAGCUGUAAC (ssRNA) [12-nt RNA] the Kd [2] was 7.42 ± 1.32 µM, the binding result (hMEX3B KH1/2 (TR4A)) was “no binding” and the binding result (hMEX3B KH1/2 (G4D)) was “no binding”. It also gave a Kd (hMEX3B KH2 WT [3]) of 21.7 ± 6.87 µM, a Kd (hMEX3B KH1/2 WT [4]) of 0.0436 ± 0.00763 µM and a Kd [5] of 2.08 ± 0.29 µM. It also gave a Kd (hMEX3B KH1 WT [6]) of 26.2 ± 7.4 µM, a Kd [7] of 5.98 ± 0.59 µM and a Kd (hMEX3B KH1/2 (G83D/G86D)) of 10.4 ± 1.29 µM.

With CUGAGCUGUACC (ssRNA) [12-nt RNA A11C] the Kd (hMEX3B KH1/2 WT [8]) was 0.89 ± 0.09 µM.

UGUAACCUGAGC (ssRNA) [switched 12-nt RNA] was tested, and the Kd (hMEX3B KH1/2 WT [9]) was > 1.11 µM.

For CUGAGC (ssRNA) [6-nt RNA CUGAGC], the Kd (hMEX3B KH2 WT [10]) was 9.57 ± 0.99 µM.

CUGCGCUGUAAC (ssRNA) [12-nt RNA A4C] showed a Kd (hMEX3B KH1/2 WT [4]) of 2.1 ± 0.31 µM.

CCCCCC (ssRNA) [C6 RNA]: no binding (hMEX3B KH1 WT [11]); no binding (hMEX3B KH2 WT [12]).

CUGAGCUGUCAC (ssRNA) [12-nt RNA A10C] gave a Kd (hMEX3B KH1/2 WT [13]) of 1.58 ± 0.24 µM.

CCCCCCCCCCCC (ssRNA) [C12 RNA]: no binding (hMEX3B KH1/2 WT [14]).

For UGUAAC (ssRNA) [6-nt RNA UGUAAC], the Kd (hMEX3B KH1 WT [15]) was 10.3 ± 0.61 µM.
